Reference: US20250304677A1 (VIB VZW, published 2025)

B1: VHH 2HFO42 (family 3) (VHH)
VHH: QVQLQESGGGLVQAGGSLRLSCAASGSGFSGMIMGWYRQVPGKQRELVATVTSHGTTNYADSVKGRFTISRDNAKNTVLLQMNSLKPEDTAVYYCNAHFPGIYWGKGTQVTVSS
notes: also called 2HF042; Nb42
B2: VHH 3MFR60 (family 10) (VHH)
VHH: QVQLQESGGGLVQAGGSLRVSCAASGIIFSMNGMGWFRQAPGKQRELVASITSGGSTKYADSVKGRFTISRDNAKNTVYLQMNSLKPEDTAVYYCNIQFGSRWSTYWGQGTQVTVSS
B3: VHH 2HFO19 (family 1) (VHH)
VHH: QVQLQESGGGLVQPGGSLRVSCAASGFPFSTVYMSWVRQAPGKGLEWVSGINNDGGVIDYADSVKGRFTISRDNAKNTLYLQLNSLKPEDTALYFCARGRSFVATLSSSLRGQGTQVTVSS
notes: also called Nb19

The binders below were run against T1, mouse folate receptor alpha (mFRα), recombinant protein (mouse, UniProt P35846 25-232) (assay: BLI, FRα on AR2G biosensors, 1:1 model).
T1 construct: Bought recombinant proteins (e.g. biotinylated, Acro Biosystems FO1-M82E9); also called mFOLR1; Ms FOLR1
Method: (§1) As a next step, the kinetic binding constants were determined using BLI ^{∘}Table 3). […] Similar to the ELISA results ^{∘}FIG. 1A-B), higher binding affinities were measured for mouse FRα than human FRα, with KD values […] one order of magnitude in most cases. […] For 3HFO28, binding to human FRα could not be confirmed by BLI, and this VHH was excluded from further characterization.
(§2) The kinetic parameters were calculated using a 1:1 binding model.

T1 sequence (P35846 25-232 limits assumed): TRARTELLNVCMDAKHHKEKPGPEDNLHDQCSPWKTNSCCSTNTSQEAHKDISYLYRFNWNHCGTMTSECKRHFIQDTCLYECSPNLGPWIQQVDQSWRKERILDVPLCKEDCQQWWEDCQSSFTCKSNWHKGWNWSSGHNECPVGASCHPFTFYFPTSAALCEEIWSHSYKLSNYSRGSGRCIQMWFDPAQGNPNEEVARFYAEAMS

Kd	koff	kon	Binder
23.8 nM	0.00467 s⁻¹	203000 M⁻¹ s⁻¹	B1
2.59 nM	0.00297 s⁻¹	1.15e+06 M⁻¹ s⁻¹	B2
2.97 nM	0.00393 s⁻¹	1.32e+06 M⁻¹ s⁻¹	B3

These binders were tested against T2, human folate receptor alpha (hFRα), recombinant protein (human, UniProt P15328 25-233) (assay: BLI, FRα on AR2G biosensors, 1:1 model).
T2 construct: Bought recombinant proteins (His-tagged, or biotinylated via Avi-tag, e.g. AcroBiosystems FO1-H82E2, F01-H52H1); also called hFOLR1; huFOLR1
Method: as §1, §2

T2 sequence (P15328 25-233 limits assumed): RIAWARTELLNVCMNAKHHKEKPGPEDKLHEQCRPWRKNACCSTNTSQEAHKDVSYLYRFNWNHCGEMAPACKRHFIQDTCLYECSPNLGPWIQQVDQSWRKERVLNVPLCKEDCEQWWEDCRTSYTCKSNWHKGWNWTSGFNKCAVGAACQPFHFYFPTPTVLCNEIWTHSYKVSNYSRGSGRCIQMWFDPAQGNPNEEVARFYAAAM

Kd	koff	kon	Binder
274 nM	0.0276 s⁻¹	101000 M⁻¹ s⁻¹	B1
169 nM	0.159 s⁻¹	938000 M⁻¹ s⁻¹	B2
63.7 nM	0.0149 s⁻¹	233000 M⁻¹ s⁻¹	B3

Each binder was assayed against T3, human FOLR1/2 chimera 7 (human, UniProt P15328 25-234) (assay: flow cytometry, transfected HEK293T cells).
T3 construct: also called Ch7
Method: (§3) Chimera 1 SEQ ID No. 67) and 7 ^{∘}Ch7; SEQ ID No. 73) also contain an additional residue change at a separate location. […] HEK293T cells were transfected with hFOLR1, hFOLR2, one of the hFOLR1/2 chimeric constructs ^{∘}FIG. 2B) or single residue mutants ^{∘}FIG. 2C). Binding of VHHs 2HFO19, 2HFO42, 3MFR60, and a mouse anti-FOLR1 monoclonal antibody ^{∘}mAb) was detected using a mouse anti-His tag antibody for the VHHs followed by an anti-mouse-phycoerythrin antibody. All VHHs were tested at a concentration of 200 nM and untransfected cells were used as a negative control. The colors used for the VHHs represent the different CDR3 families; blue: family 1, green: family 3, grey: family 10.
(§4) To identify the exact region in which the VHHs bind to FRα, epitope mapping experiments were performed. Since the VHHs are able to bind human FRα, but not FRβ, we generated seven human FOLR1/2 chimeric constructs where regions of human FOLR1 were replaced by the corresponding human FOLR2 ^{∘}FRβ) regions ^{∘}FIG. 2A): chimera 1 SEQ ID No. 67), chimera 2 ^{∘}SEQ ID No. 68), chimera 3 ^{∘}SEQ ID No. 69), chimera 4 ^{∘}SEQ ID No. 70), chimera 5 ^{∘}SEQ ID No. 71), chimera 6 ^{∘}SEQ ID No. 72) and chimera 7 ^{∘}SEQ ID No. 73). Three additional chimera 1 constructs were made: chimera 1a ^{∘}replacing fragment 31-40; SEQ ID No. 74), chimera 1b ^{∘}replacing fragment 41-50; SEQ ID No. 75) and chimera 1c ^{∘}replacing fragment 51-64; SEQ ID NO. 76). The constructs were transiently transfected into HEK293T cells and dose-dependent binding of the VHHs to the wild-types FRα and FRβ ^{∘}WTs) or the chimeric constructs was assessed via flow cytometry via detection of the tag ^{∘}FIG. 2B). […] Different anti-FRα VHHs were able to bind to cell-expressed FRα-FRβ chimeras to a similar level as WT FRα, with the exception of chimera 4 ^{∘}SEQ ID No. 70) where the binding was completely abolished for all VHHs.

T3 sequence (P15328 other isoform, or with tags, fused parts or gaps mutant limits assumed): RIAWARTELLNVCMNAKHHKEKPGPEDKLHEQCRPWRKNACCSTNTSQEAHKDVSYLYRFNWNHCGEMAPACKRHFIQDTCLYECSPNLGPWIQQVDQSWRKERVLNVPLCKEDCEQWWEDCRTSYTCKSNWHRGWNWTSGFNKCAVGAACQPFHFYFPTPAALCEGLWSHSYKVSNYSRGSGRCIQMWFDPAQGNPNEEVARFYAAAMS

binding result	Binder
binds	B1
binds	B2
binds	B3

What follows are binders tested against human FOLR1/2 chimera 3 (human, UniProt P15328 25-234) (assay: flow cytometry, transfected HEK293T cells).
Method: as §3, §4

human FOLR1/2 chimera 3, sequence (P15328 other isoform, or with tags, fused parts or gaps mutant limits assumed): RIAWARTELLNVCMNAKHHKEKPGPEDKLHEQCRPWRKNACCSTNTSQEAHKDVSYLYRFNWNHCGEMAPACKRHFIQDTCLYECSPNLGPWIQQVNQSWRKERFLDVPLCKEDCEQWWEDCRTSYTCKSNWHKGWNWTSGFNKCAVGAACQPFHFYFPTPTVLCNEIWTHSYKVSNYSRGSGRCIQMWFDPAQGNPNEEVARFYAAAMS

binding result	Binder
binds	B1
binds	B2
binds	B3

The binders below were run against T4, human FOLR1/2 chimera 1 (human, UniProt P15328 25-234) (assay: flow cytometry, transfected HEK293T cells).
T4 construct: on transfected HEK293T cells
Method: as §3, §4

T4 sequence (P15328 other isoform, or with tags, fused parts or gaps mutant limits assumed): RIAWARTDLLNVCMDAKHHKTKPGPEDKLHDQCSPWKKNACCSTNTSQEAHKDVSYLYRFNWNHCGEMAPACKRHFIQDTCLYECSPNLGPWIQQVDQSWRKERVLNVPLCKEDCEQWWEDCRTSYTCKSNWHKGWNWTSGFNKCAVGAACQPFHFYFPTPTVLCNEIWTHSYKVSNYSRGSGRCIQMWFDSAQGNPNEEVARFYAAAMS

binding result	Binder
binds	B1
binds	B2
binds	B3

The binders below were run against human FOLR1/2 chimera 2 (human, UniProt P15328 25-234) (assay: flow cytometry, transfected HEK293T cells).
Method: as §3, §4

human FOLR1/2 chimera 2, sequence (P15328 other isoform, or with tags, fused parts or gaps mutant limits assumed): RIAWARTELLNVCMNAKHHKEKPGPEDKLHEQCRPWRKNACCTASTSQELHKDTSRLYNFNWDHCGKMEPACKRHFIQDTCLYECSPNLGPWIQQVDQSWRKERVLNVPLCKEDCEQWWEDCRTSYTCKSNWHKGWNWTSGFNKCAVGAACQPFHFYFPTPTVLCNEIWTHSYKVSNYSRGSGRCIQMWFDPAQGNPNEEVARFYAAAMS

binding result	Binder
binds	B1
binds	B2
binds	B3

The binders below were run against T5, human FOLR1/2 chimera 1a (replacing fragment 31-40) (human, UniProt P15328 25-234) (assay: flow cytometry, transfected HEK293T cells).
T5 construct: Transiently expressed on HEK293T cells
Method: as §3, §4

T5 sequence (P15328 other isoform, or with tags, fused parts or gaps mutant limits assumed): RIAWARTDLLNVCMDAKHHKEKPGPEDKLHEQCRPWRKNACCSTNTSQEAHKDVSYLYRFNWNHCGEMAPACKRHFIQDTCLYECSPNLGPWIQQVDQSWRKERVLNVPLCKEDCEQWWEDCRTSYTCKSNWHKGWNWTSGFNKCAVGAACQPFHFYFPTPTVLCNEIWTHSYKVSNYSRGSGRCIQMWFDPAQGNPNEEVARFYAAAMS

binding result	Binder
binds	B1
binds	B2
binds	B3

What follows are binders tested against human FOLR1/2 chimera 5 (human, UniProt P15328 25-234) (assay: flow cytometry, transfected HEK293T cells).
Method: as §3, §4

human FOLR1/2 chimera 5, sequence (P15328 other isoform, or with tags, fused parts or gaps mutant limits assumed): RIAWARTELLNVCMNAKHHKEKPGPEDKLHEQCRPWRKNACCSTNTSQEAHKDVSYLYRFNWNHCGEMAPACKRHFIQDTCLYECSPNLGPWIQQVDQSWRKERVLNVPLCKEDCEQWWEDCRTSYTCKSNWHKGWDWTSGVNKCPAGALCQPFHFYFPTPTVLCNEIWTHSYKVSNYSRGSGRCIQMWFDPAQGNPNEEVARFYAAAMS

binding result	Binder
binds	B1
binds	B2
binds	B3

These binders were tested against human FOLR1/2 chimera 6 (human, UniProt P15328 25-234) (assay: flow cytometry, transfected HEK293T cells).
Method: as §3, §4

human FOLR1/2 chimera 6, sequence (P15328 other isoform, or with tags, fused parts or gaps mutant limits assumed): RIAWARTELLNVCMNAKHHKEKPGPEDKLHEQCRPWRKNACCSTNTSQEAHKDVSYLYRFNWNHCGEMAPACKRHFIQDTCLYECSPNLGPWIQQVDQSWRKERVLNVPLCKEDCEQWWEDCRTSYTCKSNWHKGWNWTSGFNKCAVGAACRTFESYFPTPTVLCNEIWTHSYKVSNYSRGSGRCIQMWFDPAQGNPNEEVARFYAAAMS

binding result	Binder
binds	B1
binds	B2
binds	B3

These binders were tested against T6, human FOLR1/2 chimera 1b (replacing fragment 41-50) (human, UniProt P15328 25-234) (assay: flow cytometry, transfected HEK293T cells).
T6 construct: Transiently expressed on HEK293T cells
Method: as §3, §4

T6 sequence (P15328 other isoform, or with tags, fused parts or gaps mutant limits assumed): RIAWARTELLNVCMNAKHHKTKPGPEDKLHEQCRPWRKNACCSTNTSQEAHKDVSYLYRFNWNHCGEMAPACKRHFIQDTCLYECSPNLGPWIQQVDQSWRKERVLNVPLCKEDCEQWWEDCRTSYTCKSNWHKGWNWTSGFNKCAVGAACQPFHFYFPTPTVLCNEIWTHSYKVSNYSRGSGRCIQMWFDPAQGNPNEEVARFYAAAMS

binding result	Binder
binds	B1
binds	B2
binds	B3

What follows are binders tested against T7, human FOLR1/2 chimera 4 (human, UniProt P15328 25-234) (assay: flow cytometry on transiently transfected HEK293T cells, mouse anti-His then anti-mouse-PE (B575-A)).
T7 construct: Region of amino acids 140-150 of hFOLR1 replaced by hFOLR2
Method: as §3, §4

T7 sequence (P15328 other isoform, or with tags, fused parts or gaps mutant limits assumed): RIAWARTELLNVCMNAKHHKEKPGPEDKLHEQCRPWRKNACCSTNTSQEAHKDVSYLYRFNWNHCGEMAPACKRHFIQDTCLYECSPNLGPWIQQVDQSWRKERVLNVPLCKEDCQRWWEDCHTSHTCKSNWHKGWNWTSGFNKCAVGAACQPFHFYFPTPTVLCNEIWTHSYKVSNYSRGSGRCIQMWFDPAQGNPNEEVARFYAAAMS

binding result	Binder
no binding (tested: 200 nM)	B1
no binding (tested: 200 nM)	B2
no binding (tested: 200 nM)	B3

Each binder was assayed against T8, human FRα R147H (human, UniProt P15328 25-234) (assay: flow cytometry, transfected HEK293T cells (data not shown)).
T8 construct: The entry is the mutant itself
Outline: (§5)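 HEK293T cells were transfected with single-residue mutants of human folate receptor alpha. Binding was measured by flow cytometry with each VHH at 200 nM. VHHs were detected with a mouse anti-His tag antibody followed by an anti-mouse phycoerythrin antibody. Untransfected cells served as negative control.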

T8 sequence (P15328 25-234 R147H limits assumed): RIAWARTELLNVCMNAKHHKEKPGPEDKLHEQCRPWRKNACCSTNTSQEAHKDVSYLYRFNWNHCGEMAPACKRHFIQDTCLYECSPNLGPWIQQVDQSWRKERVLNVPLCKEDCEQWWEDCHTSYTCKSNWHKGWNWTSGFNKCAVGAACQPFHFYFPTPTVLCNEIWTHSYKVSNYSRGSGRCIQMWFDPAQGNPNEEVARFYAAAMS

binding result	Binder
binds	B1
binds	B2
binds	B3

What follows are binders tested against T9, human FRα E140Q (human, UniProt P15328 25-234) in the same assay as above.
T9 construct: The entry is the mutant itself
Outline: as §5

T9 sequence (P15328 25-234 E140Q limits assumed): as the sequence (P15328 25-234 R147H limits assumed) above, with E116Q, H123R counted along it

binding result	Binder
binds	B1
binds	B2
binds	B3

Each binder was assayed against T10, human FRα Y150H (human, UniProt P15328 25-234) in the same assay as above.
T10 construct: The entry is the mutant itself
Outline: as §5

T10 sequence (P15328 25-234 Y150H limits assumed): as the sequence (P15328 25-234 R147H limits assumed) above, with H123R, Y126H counted along it

binding result	Binder
binds	B1
binds	B2
binds	B3
